The values below come from publication PMC7497807 (Blood cancer discovery, 2020).

Holding throughout (assay): fluorescence polarisation
(In general: Fluorescence polarisation rises when a labelled molecule tumbles more slowly, as on binding a larger partner.)

Experiment [1] deals with fluorescein-labeled CBX8 peptide (FITC-CBX8) (fluorescein (printed as FITC-CBX8)).
In another experiment the target is T1, BCOR (aa 1176–1225)-FITC (UniProt Q6W2J9 1176-1225, fluorescein (printed as BCOR (aa 1176–1225)-FITC)).
T1 peptide (looked up): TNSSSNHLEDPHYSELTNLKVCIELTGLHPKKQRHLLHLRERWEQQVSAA

For another experiment, the target named is MBP-AF9.
MBP-AF9, sequence (P42568 whole entry): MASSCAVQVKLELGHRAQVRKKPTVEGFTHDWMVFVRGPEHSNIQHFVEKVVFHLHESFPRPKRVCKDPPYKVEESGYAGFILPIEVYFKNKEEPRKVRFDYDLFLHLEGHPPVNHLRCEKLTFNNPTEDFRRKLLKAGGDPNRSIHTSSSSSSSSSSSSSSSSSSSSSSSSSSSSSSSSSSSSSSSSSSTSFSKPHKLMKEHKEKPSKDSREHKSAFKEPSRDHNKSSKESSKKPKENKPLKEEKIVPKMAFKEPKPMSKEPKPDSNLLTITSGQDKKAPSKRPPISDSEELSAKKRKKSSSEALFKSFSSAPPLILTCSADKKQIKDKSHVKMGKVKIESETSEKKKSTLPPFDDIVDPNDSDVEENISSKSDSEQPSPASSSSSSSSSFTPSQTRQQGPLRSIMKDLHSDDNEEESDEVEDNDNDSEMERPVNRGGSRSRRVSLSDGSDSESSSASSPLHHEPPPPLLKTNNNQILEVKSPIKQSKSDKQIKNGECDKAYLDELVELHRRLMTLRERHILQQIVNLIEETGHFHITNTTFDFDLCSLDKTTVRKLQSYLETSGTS

B1: MBP-ENL (domain or fragment)
chain: YTDELVELHRRLMALRERNVLQQIVNLIEETGHFNVTNTTFDFDLFSLDETTVRKLQSCLE
As a reminder, the Kd is the free concentration of one partner at which half of the binding sites on the other are occupied at equilibrium, for simple one-to-one binding. Low values mean a tighter complex, high ones a looser complex. In experiment [1], B1 had a Kd of 112 ± 13 nM. The “fold tighter binding to MBP-ENL than to MBP-AF9” value in the experiment with BCOR (aa 1176–1225)-FITC turned out to be 9 fold.

The IC50 is the midpoint of a concentration-inhibition curve. The molecule AQGGRPSLIARIPVARILGDPEEE [unlabeled CBX8 WT peptide] returned an IC50 in the experiment with MBP-AF9 of 1880 ± 202 nM.
